Test results from PMC12233901, “Resolving the APN controversy in PEDV infection: Comparative kinetic characterization through single-virus tracking” (PLOS Pathogens, 2025).

T1: porcine aminopeptidase N (pAPN) fused with a hFc tag (porcine, UniProt P15145)
T1 construct: also called porcine APN; source: HEK293T cell expression system, expressed and purified
T1 sequence: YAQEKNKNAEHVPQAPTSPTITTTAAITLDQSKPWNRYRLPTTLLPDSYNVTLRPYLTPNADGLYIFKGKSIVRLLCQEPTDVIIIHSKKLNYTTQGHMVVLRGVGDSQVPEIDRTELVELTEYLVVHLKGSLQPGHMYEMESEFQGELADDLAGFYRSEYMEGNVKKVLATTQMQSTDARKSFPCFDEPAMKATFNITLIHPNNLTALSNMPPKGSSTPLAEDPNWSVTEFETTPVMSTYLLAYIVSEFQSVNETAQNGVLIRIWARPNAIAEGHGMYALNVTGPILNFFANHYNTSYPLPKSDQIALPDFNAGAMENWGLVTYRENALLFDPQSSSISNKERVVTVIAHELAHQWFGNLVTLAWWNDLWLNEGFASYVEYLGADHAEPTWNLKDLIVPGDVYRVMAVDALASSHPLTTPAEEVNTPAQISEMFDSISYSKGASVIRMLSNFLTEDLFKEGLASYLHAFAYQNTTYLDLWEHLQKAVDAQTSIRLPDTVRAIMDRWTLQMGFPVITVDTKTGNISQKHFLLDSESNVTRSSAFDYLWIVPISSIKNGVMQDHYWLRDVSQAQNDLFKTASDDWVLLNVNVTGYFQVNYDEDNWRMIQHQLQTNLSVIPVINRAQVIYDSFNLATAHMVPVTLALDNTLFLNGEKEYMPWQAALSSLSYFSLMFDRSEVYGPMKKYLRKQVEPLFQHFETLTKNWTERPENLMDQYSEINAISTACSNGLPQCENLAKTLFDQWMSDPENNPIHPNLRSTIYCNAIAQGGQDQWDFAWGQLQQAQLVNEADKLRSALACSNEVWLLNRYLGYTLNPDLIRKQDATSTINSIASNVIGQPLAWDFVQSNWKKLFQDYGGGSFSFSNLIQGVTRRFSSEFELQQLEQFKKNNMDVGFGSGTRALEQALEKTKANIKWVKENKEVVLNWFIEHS


Target: T1, porcine aminopeptidase N (pAPN) fused …
Assay: SPR; […]; Biacore 8K, room temperature
Conditions: both partners purified

Binder | Kd [µM]
TGEV S1 protein with a C-terminal His tag (domain or fragment) IGNHWNLIETFLLNYSSRLPPNSDAVLGDYFPTVQPWFNCIRNNSNDLYVTLENLKALYWDYAIENITSNHKQRLNVVVNGYPYSITVTTTRNFNSAEGAIICICKGSPPTTTTESSLTCNWGSECRLNHKFPICPSNSEANCGNMLYGLQWFADAVVAYLHGASYRISFENQWSGTVTLGDMRATTLETAGTLVDLWWFNPVYDVSYYRVNNKNGTTVVSNCTDQCASYVANVFTTQPGGFIPSDFSFNNWFLLTNSSTLVSGKLVTKQPLLVNCLWPVPSFEEAASTFCFEGAGFDQCNGAVLNNTVDVIRFNLNFTTNVQSGKGATVFSLNTTGGVTLEISCYNDTVSDSSFSSYGEMPFGVTDGPRYCYVLYNGTALKYLGTLPPVVKEIAISKWGHFYINGYNFFSTFPIDCISFNLTTGDSDVFWTIAYTSYTEALVQVENTAITKVTYCNSYVNNIKCSQLTANLNNGFYPVSSSEVGLVNKSVVLLPSFYTHTIVNITIGLGMKRSGYGQPIASTLSNITLPMQDDNTDVYCIRSDQFSVYVHSTCKSALWDNVFKRNCTDVLDATAVIKTGTCPFSFAKLNNYLTFNKFCLSLSPVGANCKFDVAARTRTNDQVVRSLYVIYEEGDNIVGVPSDNSGLHDLSVLHLDSCTDYNIYGRTGVGIIRQTNRTLLSGLYYTSLSGDLLGFKNVSDGVIYSVTPCDVIAQAAVIDGTIVGAITSINSELLGLTHWTTTPNFYYY | 0.392
PEDV S1 protein with a C-terminal His tag (domain or fragment) CQSTTNFRRFFSKFNVQAPAVVVLGGYLPSMNSSSWYCGTGIETASGVHGIFLSYIDSGQGFEIGISQEPFDPSGYQLYLHKATNGNTNAIARLRICQFPDNKTLGPTVNDVTTGRNCLFNKAIPAYMRDGKDIVVGITWDNDRVTVFADKIYHFYLKNDWSRVATRCYNRRSCAMQYVYTPTYYMLNVTSAGEDGIYYEPCTANCTGYAANVFATDSNGHIPEGFSFNNWFLLSNDSTLLHGKVVSNQPLLVNCLLAIPKIYGLGQFFSFNHTMDGVCNGAAVDRAPEALRFNINDTSVILAEGSIVLHTALGTNLSFVCSNSSDPHLAIFAIPLGATEVPYYCFLKVDTYNSTVYKFLAVLPPTVREIVITKYGDVYVNGFGYLHLGLLDAVTINFTGHGTDDDVSGFWTIASTNFVDALIEVQGTSIQRILYCDDPVSQLKCSQVAFDLDDGFYPISSRNLLSHEQPISFVTLPSFNDHSFVNITVSAAFGGLSSANLVASDTTINGFSSFCVDTRQFTITLFYNVTNSYGYVSKSQDSNCPFTLQSVNDYLSFSKFCVSTSLLAGACTIDLFGYPAFGSGVKLTSLYFQFTKGELITGTPKPLEGITDVSFMTLDVCTKYTIYGFKGEGIITLTNSSILAGVYYTSDSGQLLAFKNVTSGAVYSVTPCSFSEQAAYVNDDIVGVISSLSNSTFNNTRELPGFFYH | 47.5
